Experimental data: US20200165324A1 (INTERNATIONAL AIDS VACCINE INITIATIVE, published 2020)
Substitutions are numbered along the chain they refer to.

Assays:
[1] = molecular target: BG505 D368R recombinant gp120 protein; assay: ELISA on recombinant gp120
[2] = molecular target: T1, BG505 WT recombinant gp120 protein (HIV isolate BG505); assay: ELISA on recombinant gp120
T1 construct: also called WT protein

[3] = molecular target: T2, BG505 SOSIP.664 gp140 trimer (HIV isolate BG505); assay: complex used as bait in flow cytometry sorting
T2 construct: Soluble Env trimer made in HEK293F cells with co-transfected furin (cleaved gp120 and gp41 ectodomain, disulfide-linked); His- and Avi-tagged (biotinylated) versions were also made; also called BG505 SOSIP trimer; BG505 SOSIP.664-His gp140

[4] = molecular target: BG505 N279A; assay: ELISA, gp120 captured from lysed virions
[5] = molecular target: BG505 G472A; assay: ELISA, gp120 captured from lysed virions
[6] = molecular target: BG505 K282A; assay: ELISA, gp120 captured from lysed virions
[7] = molecular target: T3, JR-CSF gp120 captured from lysed virions (HIV isolate JR-CSF, UniProt P20871 32-503); assay: ELISA, gp120 captured from lysed virions
T3 construct: gp120 from NP40-lysed pseudovirus, captured by an anti-C5 gp120 antibody

[8] = molecular target: T4, centromere B (human, UniProt P07199 1-599); assay: single autoantigen ELISA (Aesku), cut-off of the manufacturer
T4 sequence (looked up): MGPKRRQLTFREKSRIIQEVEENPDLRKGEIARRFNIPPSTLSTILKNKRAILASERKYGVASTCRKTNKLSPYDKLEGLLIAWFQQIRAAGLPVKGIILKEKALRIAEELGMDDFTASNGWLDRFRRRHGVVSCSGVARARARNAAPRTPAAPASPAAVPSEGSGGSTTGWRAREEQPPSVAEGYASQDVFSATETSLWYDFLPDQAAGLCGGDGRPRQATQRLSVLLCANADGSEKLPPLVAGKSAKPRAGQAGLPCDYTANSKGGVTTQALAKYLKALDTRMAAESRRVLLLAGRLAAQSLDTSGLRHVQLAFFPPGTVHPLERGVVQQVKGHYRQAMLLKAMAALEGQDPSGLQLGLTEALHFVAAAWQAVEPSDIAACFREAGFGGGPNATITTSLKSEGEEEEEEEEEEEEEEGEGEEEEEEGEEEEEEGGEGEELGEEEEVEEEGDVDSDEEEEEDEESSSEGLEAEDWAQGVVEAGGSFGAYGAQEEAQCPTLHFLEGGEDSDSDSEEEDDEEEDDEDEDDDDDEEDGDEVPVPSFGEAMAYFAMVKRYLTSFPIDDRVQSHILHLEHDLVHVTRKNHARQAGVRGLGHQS
Procedure: (§1) Single antigen ELISA assays for SSA/Ro, SS-B/La, Sm, ribonucleoprotein (RNP), Jo-1, double-stranded DNA, centromere B, and histones were purchased from Aesku Diagnostics (Oakland, Calif.). The 96 wells were separately coated with these eight cellular and nuclear antigens for the qualitative detection of mAbs reactivity. A cut-off calibrator was provided by the manufacturer. The negative control was diluted human serum.

[9] = molecular target: T5, SS-B/La (human, UniProt P05455 1-408, limits assumed); assay: as above
T5 sequence (looked up): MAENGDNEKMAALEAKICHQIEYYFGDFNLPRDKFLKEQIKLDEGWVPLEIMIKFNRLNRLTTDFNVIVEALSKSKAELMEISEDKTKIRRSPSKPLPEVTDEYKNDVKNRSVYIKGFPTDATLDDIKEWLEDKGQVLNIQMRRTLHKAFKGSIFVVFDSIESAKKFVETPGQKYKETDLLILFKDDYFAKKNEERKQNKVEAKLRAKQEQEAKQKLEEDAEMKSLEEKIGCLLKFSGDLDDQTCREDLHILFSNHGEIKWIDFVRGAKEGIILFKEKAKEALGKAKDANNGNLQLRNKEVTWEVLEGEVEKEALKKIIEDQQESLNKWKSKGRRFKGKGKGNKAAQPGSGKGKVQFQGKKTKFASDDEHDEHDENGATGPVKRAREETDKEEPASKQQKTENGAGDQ
Procedure: as §1

[10] = molecular target: T6, Jo-1 (human, UniProt P12081 1-509, limits assumed); assay: as above
T6 sequence (looked up): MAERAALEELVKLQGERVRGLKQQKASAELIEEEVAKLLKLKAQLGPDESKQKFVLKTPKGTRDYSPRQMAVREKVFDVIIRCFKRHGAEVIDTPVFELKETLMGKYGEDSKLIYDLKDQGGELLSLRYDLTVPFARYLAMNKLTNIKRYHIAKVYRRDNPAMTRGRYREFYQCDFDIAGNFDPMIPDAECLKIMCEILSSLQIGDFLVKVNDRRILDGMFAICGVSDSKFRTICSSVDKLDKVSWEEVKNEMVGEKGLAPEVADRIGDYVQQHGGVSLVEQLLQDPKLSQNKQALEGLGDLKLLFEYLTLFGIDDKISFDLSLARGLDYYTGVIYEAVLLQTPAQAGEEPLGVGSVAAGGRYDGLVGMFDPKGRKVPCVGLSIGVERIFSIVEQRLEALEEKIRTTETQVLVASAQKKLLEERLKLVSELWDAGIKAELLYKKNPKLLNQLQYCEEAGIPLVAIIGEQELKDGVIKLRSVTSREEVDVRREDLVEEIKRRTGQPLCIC
Procedure: as §1

[11] = molecular target: BG505 N279A; assay: cell-based or functional assay
[12] = molecular target: JR-CSF Env on JR-CSF pseudovirus; assay: cell-based or functional assay
[13] = molecular target: BG505 Env on BG505 pseudovirus (HIV isolate BG505); assay: cell-based or functional assay
[14] = molecular target: BG505 K282A; assay: cell-based or functional assay
[15] = molecular target: T2, BG505 SOSIP.664 gp140 trimer; assay: single particle negative stain electron microscopy

B1: NC-Cow1 (antibody)
VH: QVQLRESGPSLMKPSQTLSLTCTVSGSSLNDKSVGWVRQAPGKALQWLGSVDTSGNTDYNPGLKSRLSITKDNSKSRISLTVTGMTTEDSATYYCITAHQKTNKKECPEDYTYNPRCPQQYGWSDCDCMGDRFGGYCRQDGCSNYIHRSTYEWYVSAWGQGLLVTVSS
VL: SYELTQPSSVSGSLGQRVSVTCSGSSSNVGNGYVSWYQLIPGSAPRTIIYGDTSRASGVPERFSGSRSGNTATLTISSLQAEDEADFFCASPDDSSSNAVFGSGTTLTVL
notes: detected with anti-human IgG; also called d238-P1B4_NC-Cow1; mature NC-Cow1 HC + mature NC-Cow1 LC
In the case of B1, the “EC50 (read off the curve)” value [1] is reported as ~0.04 µg/mL, the “EC50 (read off the curve)” value [2] is reported as ~0.06 µg/mL and the binding result [3] is reported as “binds”. The EC50 [4] was 0.11 µg/mL, the EC50 [5] was 0.37 µg/mL and the EC50 [6] was 1.18 µg/mL. The EC50 [7] was 0.075 µg/mL, the binding result [8] was “no binding (tested: 100 µg/ml)” and the binding result [9] was “no binding (tested: 100 µg/ml)”. The binding result [10] was “no binding (tested: 100 µg/ml)”, the “IC50, pseudovirus neutralization” value [11] was 0.012 µg/mL and the “IC50, pseudovirus neutralization” value [12] was 0.821 µg/mL. The “IC50, pseudovirus neutralization” value [13] was 0.006 µg/mL and the “IC50, pseudovirus neutralization” value [14] was 0.02 µg/mL.

B2: NC-Cow2 Fab (Fab)
VH: KVQLRESGPSLVKPSQTLSLTCMVSGSSLSDKAVGWVRQAPGKALEWLGIISAGGNRGYNSGLRSRLTISKDNSKNEVSLRVRSVTTEDSATYFCGTVHQKTQRKPICPDGYSDDSTLRYYSRCSDRDCWRCTGTTYYDTCQCGTYTWIDTHELHVDAWGQGLLVTVSS
VL: B1 VL with S1Q, Y2A, E3V, T5N, V20I, I48L, E61D, F87Y, P92A, D93E
notes: Fab used for negative stain electron microscopy; also called cow Fab NC-Cow2
B2: binds [15].

B3: NC-Cow1 Fab (Fab)
VH: B1 VH
VL: B1 VL
notes: Fab used for negative stain electron microscopy; also called cow Fab NC-Cow1
B3: binds [15].
